We go through three molecules from patent US8889126B2, “Methods and compositions for treating neuropathies” (Washington University, priority 2004, dated 2014).

For one assay, the system named is DRG explant neurons. Nature of the assay: in vitro Wallerian degeneration assay: DRG explant cultures, axonal transection by removal of neuronal cell bodies. The format is cell-based, mouse. The conditions noted are these: lentivirus-infected DRG neurons. The method, then: (§1) To identify the mechanism of delayed axonal degeneration mediated by the Wld^s protein, we employed an in-vitro Wallerian degeneration model. Primary DRG explant neurons were infected with lentivirus expressing the appropriate proteins, and axons were injured by either removal of the neuronal cell body (transection) or growth in vincristine (toxic).
Mouse DRG explants from E12.5 embryos were cultured in the presence of 1 nM nerve growth factor. Non-neuronal cells were removed from the cultures by adding 5-fluorouracil to the culture medium. Transection of neurites was performed at 10-20 DIV using an 18-gauge needle to remove the neuronal cell bodies. […]
Lentiviral expression vectors were generated using HEK293T cells as described above. […] These lysates were analyzed by immunoblot to using anti-His tag monoclonal antibody (Qiagen) to detect expression of the respective hexahistidine-tagged proteins. […]
Quantitative analysis of axonal degeneration was performed as previously described (Zhai, et al., Neuron 39:217-25, 2003). […] Axons with a fragmented, non-refractile appearance were designated as “degenerated.” At each time point, at least 200 singly distinguishable axons were blindly scored from several randomly taken images of each culture. […]
Cell culture, in vitro axotomy, and quantification of axonal degeneration. […] Quantitative analysis of neurite degeneration was performed.

Another assay relates to DRG neuronal explant. Put plainly: vincristine-induced axonal degeneration in DRG neuronal explants. The assay is classed as cell-based, mouse. The conditions noted are these: 0.5 μM vincristine for up to 9 d, lentiviral expression. The method, then:
as §1
Quantitative analysis of axonal degeneration was performed as previously described (Zhai, et al., Neuron 39:217-25, 2003). Briefly, the cultures were examined using phase contrast microscopy at the indicated times. Axons with a fragmented, non-refractile appearance were designated as “degenerated.” At each time point, at least 200 singly distinguishable axons were blindly scored from several randomly taken images of each culture. […] For calculations of neurite-covered area, digitally captured images from quadruplicate samples of two independent experiments were analyzed using analysis 3.1 software (Soft Imaging System, Lakewood, Colo.).
In addition to mechanical transection, axonal protection in wld^s mice is also observed against other damaging agents such as ischemia and toxins (Coleman, et al., Trends Neurosci 25:532-37, 2002; Gillingwater, et al., J Cereb Blood Flow Metab 24:62-66, 2004). […] FIG. 2C illustrates protein expression in lentivirus-infected cells detected by immunoblot analysis using antibodies to the 6×His tag. […]

A further assay concerns DRG neurons. Nature of the assay: overall cellular NAD levels in DRG neurons by microscale enzymatic assays. The assay is classed as cell-based. The conditions noted are these: NMNAT1 expressing vs wild type DRG neurons. From the text:
Similarly, most enzymes that make up the NAD salvage pathway in yeast are also compartmentalized in the nucleus. […] Furthermore, levels of tissue NAD in the brains of wild type and wld^s mice are similar despite the increased levels of NMNAT activity in wld^s mice (Mack, et al., Nat Neurosci, 4:1199-206, 2001).

B1: dominant-negative Ufd2a mutant: Ufd2a containing a point mutation (P1140A) that inhibits wild-type Ufd2a function (protein, UniProt Q9ES00 1-1173, looked up, variant P1140A)
Ubiquitin conjugation factor …: MEELSADEIRRRRLARLAGGQTSQPTTPLTSPQRENPPGPPIAASAPGPSQSLGLNVHNMTPATSPIGAAGVAHRSQSSEGVSSLSSSPSNSLETQSQSLSRSQSMDIDGVSCEKSMSQVDVDSGIENMEVDENDRREKRSLSDKEPSSGPEVSEEQALQLVCKIFRVSWKDRDRDVIFLSSLSAQFKQNPKEVFSDFKDLIGQILMEVLMMSTQTRDENPFASLTATSQPIATAARSPDRNLMLNTGSSSGTSPMFCNMGSFSTSSLSSLGASGGASNWDSYSDHFTIETCKETDMLNYLIECFDRVGIEEKKAPKMCSQPAVSQLLSNIRSQCISHTALVLQGSLTQPRSLQQPSFLVPYMLCRNLPYGFIQELVRTTHQDEEVFKQIFIPILQGLALAAKECSLESDYFKYPLMALGELCETKFGKTHPMCNLVASLPLWLPKSLSPGSGRELQRLSYLGAFFSFSVFAEDDAKVVEKYFSGPAITLENTRVVSQSLQHYLELGRQELFKILHSILLNGETREAALSYMAALVNANMKKAQMQADDRLVSTDGFMLNLLWVLQQLSTKIKLETVDPTYIFHPRCRITLPNDETRINATMEDVNERLTELYGDQPPFSEPKFPTECFFLTLHAHHLSILPSCRRYIRRLRAIRELNRTVEDLKNNESQWKDSPLATRHREMLKRCKTQLKKLVRCKACADAGLLDESFLRRCLNFYGLLIQLMLRILDPAYPDVTLPLNSEVPKVFAALPEFYVEDVAEFLFFIVQYSPQVLYEPCTQDIVMFLVVMLCNQNYIRNPYLVAKLVEVMFMTNPSVQPRTQKFFEMIENHPLSTKLLVPSLMKFYTDVEHTGATSEFYDKFTIRYHISTIFKSLWQNIAHHGTFMEEFNSGKQFVRYINMLINDTTFLLDESLESLKRIHEVQEEMKNKEQWDQLPRDQQQARQSQLAQDERVSRSYLALATETVDMFHLLTKQVQKPFLRPELGPRLAAMLNFNLQQLCGPKCRDLKVENPEKYGFEPKKLLDQLTDIYLQLDCARFAKAIADDQRSYSKELFEEVISKMRKAGIKSTIAIEKFKLLAEKVEEIVAKNARAEIDYSDAPDEFRDPLMDTLMTDPVRLPSGTVMDRSIILRHLLNSPTDAFNRQMLTESMLEPVPELKEQIQAWMREKQSSDH
With B1, the “axonal degeneration after transection in neurons expressing the construct” value with DRG explant neurons is given as “neither of these methods resulted in delayed axonal degradation”.

B2: NMNAT1: nicotinamide mononucleotide adenylyltransferase1, murine, lentivirally expressed (protein, UniProt Q9EPA7 1-285, looked up)
Nicotinamide/nicotinic acid …: MDSSKKTEVVLLACGSFNPITNMHLRLFELAKDYMHATGKYSVIKGIISPVGDAYKKKGLIPAHHRIIMAELATKNSHWVEVDTWESLQKEWVETVKVLRYHQEKLATGSCSYPQSSPALEKPGRKRKWADQKQDSSPQKPQEPKPTGVPKVKLLCGADLLESFSVPNLWKMEDITQIVANFGLICITRAGSDAQKFIYESDVLWRHQSNIHLVNEWITNDISSTKIRRALRRGQSIRYLVPDLVQEYIEKHELYNTESEGRNAGVTLAPLQRNAAEAKHNHSTL
modifications: lentivirally expressed
As to B2, the “axon length and refractility in vincristine” value in the assay on DRG neuronal explant was “maintained their original length and refractility”. Moreover, the “overall cellular NAD levels” value with DRG neurons is “no changes in overall cellular NAD levels were found”.

B3: NmPRT: nicotinamide phosphoribosyltransferase, expressed in neurons (protein, UniProt Q99KQ4 1-491, looked up)
Nicotinamide …: MNAAAEAEFNILLATDSYKVTHYKQYPPNTSKVYSYFECREKKTENSKVRKVKYEETVFYGLQYILNKYLKGKVVTKEKIQEAKEVYREHFQDDVFNERGWNYILEKYDGHLPIEVKAVPEGSVIPRGNVLFTVENTDPECYWLTNWIETILVQSWYPITVATNSREQKKILAKYLLETSGNLDGLEYKLHDFGYRGVSSQETAGIGASAHLVNFKGTDTVAGIALIKKYYGTKDPVPGYSVPAAEHSTITAWGKDHEKDAFEHIVTQFSSVPVSVVSDSYDIYNACEKIWGEDLRHLIVSRSTEAPLIIRPDSGNPLDTVLKVLDILGKKFPVTENSKGYKLLPPYLRVIQGDGVDINTLQEIVEGMKQKKWSIENVSFGSGGALLQKLTRDLLNCSFKCSYVVTNGLGVNVFKDPVADPNKRSKKGRLSLHRTPAGNFVTLEEGKGDLEEYGHDLLHTVFKNGKVTKSYSFDEVRKNAQLNIEQDVAPH
In the case of B3, the “axonal degeneration after transection in neurons expressing the construct” value in the assay with DRG explant neurons was “shows axonal protection”.
